Reference: patent US20200385710

Legend:
[1] = test system: T1, Bxb1 integrase, codon-optimized with bipartite Xenopus NLS (Mycobacteriophage Bxb1?); experiment: cell_activity; conditions: 1 mM VPA as printed, 27.6% without VPA
T1 sequence: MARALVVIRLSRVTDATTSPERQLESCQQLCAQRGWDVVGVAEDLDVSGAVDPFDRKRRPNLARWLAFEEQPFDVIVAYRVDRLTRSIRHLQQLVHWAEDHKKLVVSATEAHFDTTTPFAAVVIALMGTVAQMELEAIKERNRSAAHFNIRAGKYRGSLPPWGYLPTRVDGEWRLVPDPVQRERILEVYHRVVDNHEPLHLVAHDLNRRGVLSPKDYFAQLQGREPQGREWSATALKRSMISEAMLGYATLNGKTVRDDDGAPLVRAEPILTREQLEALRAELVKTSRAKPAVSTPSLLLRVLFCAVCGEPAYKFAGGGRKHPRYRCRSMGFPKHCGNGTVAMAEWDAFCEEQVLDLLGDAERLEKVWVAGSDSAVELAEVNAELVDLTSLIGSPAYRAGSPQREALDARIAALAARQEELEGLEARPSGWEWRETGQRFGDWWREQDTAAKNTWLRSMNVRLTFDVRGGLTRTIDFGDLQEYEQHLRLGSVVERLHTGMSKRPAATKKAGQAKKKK

[2] = test system: Bxb1 integrase (Mycobacteriophage Bxb1?); experiment: cell_activity; conditions: 0.85% without integrase

| Substance | activity (% integration) ([1]; attB donor partner, HEK293 H11) | activity (% GFP-positive cells) ([2]; attB donor partner of attP at H11 in HEK293) | activity (% integration) ([1]; HEK293 H11 attP, 43.5% at 700 nM VPA) | activity (% GFP-positive cells) ([2]; attP x attB integration at H11 in HEK293, AAVS1 locus 15.4% (0.74% without)) |
| --- | --- | --- | --- | --- |
| Bxb1 attB (donor plasmid with GFP) | 45.2 | 19.4 | – | – |
| Bxb1 attP (landing pad at H11 or AAVS1 locus) | – | – | 45.2 | 19.4 |
